From the Human Domainome abundance scans (Beltran et al. 2025)

B1: Bromodomain adjacent to zinc finger domain protein 2B, residues 1927 to 1982; numbered along this chain, Q9UIF8 (parent)
chain: KSIMKVYCQICRKGDNEELLLLCDGCDKGCHTYCHRPKITTIPDGDWFCPACIAKA

Variants of: B1
Assay: abundance fitness (aPCA) (normalised: wild type 0, dead -1); higher = more abundant; growth selection in yeast, the domain comes from the species named
Conditions: Homo sapiens

Abundance fitness, by site and new letter:
Q9: Y 0.029, A -0.108, N -0.041, T -0.063, D 0.028, I -0.164, F -0.099, P 0.004, W -0.203, V -0.149, R -0.195, K -0.146, M -0.096, C -0.091, L -0.103, S 0.07
C8: Y -0.942, R -1.08, W -1.17, S -0.944, T -0.902
K13: T -0.164, P -0.512, W -0.25, N -0.102, D -0.047, I -0.136, E -0.045, M -0.002, H -0.076, V -0.138, S -0.11, A -0.032, R -0.177, G -0.047, Q -0.111, F -0.24, Y -0.271
L22: G -0.006, M -0.067, A 0.032, Y -0.174, I -0.054, C 0.008, E 0.029, T -0.024, H -0.039, S 0.01, V -0.034, K 0.144, P -0.126, N -0.051
E18: R -0.055, P -0.183, W -0.266, T -0.011, I -0.376, F -0.124, H 0.042, V -0.205, M -0.039, C -0.235, Q -0.067, K 0.051, Y -0.188, S 0.01, G -0.046, A -0.011
D24: P -0.05, C 0.073, T 0.06, G 0.155, E 0.219, Y -0.669, L -0.034, H -0.063, F -0.273, M 0.026, K -0.005, S 0.053, R -0.061, N 0.113, A 0.048, Q 0.08
